The source of these data is the Human Domainome abundance scans (Beltran et al. 2025).

Sequences and labels used below:
B1: Activity-dependent neuroprotector homeobox protein, residues 770 to 810; numbered along this chain, Q9H2P0 (parent)
chain: FLTKYFNKQPYPTRREIEKLAASLWLWKSDIASHFSNKRKK

± gives the uncertainty stated by the source.

This data set covers variants of B1. Put plainly: abundance fitness (aPCA) (normalised: wild type 0, dead -1); higher = more abundant; growth selection in yeast, the domain comes from the species named. The note with it: Homo sapiens.
On to FLTKYFNKQPYPTRRSIEKLAASLWLWKSDIASHFSNKRKK [E16S], for which the abundance fitness was -0.036 ± 0.085.

For the variant FLTKYFNKQPYPERREIEKLAASLWLWKSDIASHFSNKRKK [T13E], the abundance fitness was -0.369 ± 0.1.

Turning to FLTKYFNKQPYPRRREIEKLAASLWLWKSDIASHFSNKRKK [T13R], the abundance fitness is -0.048 ± 0.055.

In the case of FLTKYFNKQPYPARREIEKLAASLWLWKSDIASHFSNKRKK [T13A], the abundance fitness came out at 0.016 ± 0.069.

As to FLTKYFNKQPYPSRREIEKLAASLWLWKSDIASHFSNKRKK [T13S], the abundance fitness is -0.079 ± 0.083.

Consider FLYKYFNKQPYPTRREIEKLAASLWLWKSDIASHFSNKRKK [T3Y], for which the abundance fitness is -0.619 ± 0.18.

For the variant FLEKYFNKQPYPTRREIEKLAASLWLWKSDIASHFSNKRKK [T3E], the abundance fitness is -0.059 ± 0.13.

As for FLSKYFNKQPYPTRREIEKLAASLWLWKSDIASHFSNKRKK [T3S], the abundance fitness stood at 0.001 ± 0.054.

With FLTKYFNKQPYPTRREIEKLAASLWLWKSDIASHFSNKFKK [R39F], the abundance fitness is -0.157 ± 0.067.

For the variant FLTKYFNKQPYPTRREIEKLAASLWLWKSDIASHFSNKEKK [R39E], the abundance fitness was -0.249 ± 0.11.

For the variant FLTKYFNKQPYPTRREIEKLAASLWLWKSDIASHFSNKPKK [R39P], the abundance fitness was -0.232 ± 0.053.

For the variant FLTKYFNKQPYPTRREIEKLAASLWLWKSDIASHFSNKNKK [R39N], the abundance fitness was -0.012 ± 0.12.

FLTKYFNKQPYPTRREIEKLAASLWLWKSDIWSHFSNKRKK [A32W]: the abundance fitness turned out to be 0.113 ± 0.091.

For FLTKYFNKQPYPTRREIEKLAASLWLWKSDIASHFSNKRKR [K41R], the abundance fitness was -0.092 ± 0.08.

In the case of FLTKYFNKQPYPTRREIEKLAASLWLWKSDIASHFSNKRKC [K41C], the abundance fitness is -0.261 ± 0.1.

For FLTKYFNKQPYPTRREIEKLAASLWLWKSDIASHFSNKRKI [K41I], the abundance fitness is -0.277 ± 0.1.

With FLTKYFNKQPYPTRREIEKLAASLWLWKSDIASVFSNKRKK [H34V], the abundance fitness came to 0.117 ± 0.051.

For the variant FLTKYFNKQPYPTRREIEKLAASLWLWKSDIASSFSNKRKK [H34S], the abundance fitness was -0.02 ± 0.048.

As to FLTKYFNKQPYPTRREIEKLAASLWLWKSDIASRFSNKRKK [H34R], the abundance fitness was -0.085 ± 0.048.

For the variant FLTKYFNKQPYPTRREIEKLAASLWLWKSDIASEFSNKRKK [H34E], the abundance fitness was -0.275 ± 0.068.

For the variant FLTKYFNKQPYPTRREIEKLAASLWLWKSDIASMFSNKRKK [H34M], the abundance fitness was 0.043 ± 0.091.

As to FLTKYFNKQPYPTRREIEKLAASLWLWKSDIASYFSNKRKK [H34Y], the abundance fitness was -0.151 ± 0.065.

On to FLTKYFNKQPYPTRREIEKLAASLWLWKSDCASHFSNKRKK [I31C], for which the abundance fitness was -0.075 ± 0.065.

Turning to FLTKYFNKQPYPTRREIEKLAASLWLWKSDNASHFSNKRKK [I31N], the abundance fitness is -0.153 ± 0.072.

As for FLTKYFNKQPYPTRREIEKLAASLWLWKSDEASHFSNKRKK [I31E], the abundance fitness is -0.23 ± 0.091.

As to FLTKYFNKQPYPTRREIEKLAASLWLWKSDPASHFSNKRKK [I31P], the abundance fitness is -0.098 ± 0.064.

For the variant FLTKYFNKQPYPTRREQEKLAASLWLWKSDIASHFSNKRKK [I17Q], the abundance fitness is -0.89 ± 0.14.

FLTKYFNKQPYPTRREYEKLAASLWLWKSDIASHFSNKRKK [I17Y]: the abundance fitness is -0.1 ± 0.086.

On to FLTKYFNKQPYPTRREPEKLAASLWLWKSDIASHFSNKRKK [I17P], for which the abundance fitness was -0.296 ± 0.066.

In the case of FLTKYFNKQPYPTRREGEKLAASLWLWKSDIASHFSNKRKK [I17G], the abundance fitness was -0.158 ± 0.055.

Take FLTKYFNKQPFPTRREIEKLAASLWLWKSDIASHFSNKRKK [Y11F]: the abundance fitness is -0.182 ± 0.13.

With FLTKYFNKQPLPTRREIEKLAASLWLWKSDIASHFSNKRKK [Y11L], the abundance fitness was -0.006 ± 0.052.

FLTKYFNKQPAPTRREIEKLAASLWLWKSDIASHFSNKRKK [Y11A]: the abundance fitness is 0.137 ± 0.064.

Consider FLTKYFNKQPYPTRREIEKLAASDWLWKSDIASHFSNKRKK [L24D], for which the abundance fitness is -0.033 ± 0.19.

In the case of FLTKYFNKQPYPTRREIEKLAASVWLWKSDIASHFSNKRKK [L24V], the abundance fitness is 0.123 ± 0.07.

Consider FLTKYFNKQPYPTRREIEKLAASWWLWKSDIASHFSNKRKK [L24W], for which the abundance fitness is -0.121 ± 0.093.

Consider FLTKYFNKQPYPTRREIEKLAAPLWLWKSDIASHFSNKRKK [S23P], for which the abundance fitness is -0.12 ± 0.061.

As for FLTKYFNKQPYPTRREIEKLAAWLWLWKSDIASHFSNKRKK [S23W], the abundance fitness was -0.091 ± 0.14.

Consider FLTKYFNKQPYPTYREIEKLAASLWLWKSDIASHFSNKRKK [R14Y], for which the abundance fitness was -0.13 ± 0.25.

In the case of FLTKYFNKQPYPTHREIEKLAASLWLWKSDIASHFSNKRKK [R14H], the abundance fitness is -0.514 ± 0.42.

Regarding FLTKYFNKQPYPTMREIEKLAASLWLWKSDIASHFSNKRKK [R14M], the abundance fitness is -0.028 ± 0.12.

Consider FLTKYFNKQPYPTRREIEKLAASLWLWKVDIASHFSNKRKK [S29V], for which the abundance fitness was -0.302 ± 0.11.

In the case of FLTKYFNKQPYPTRREIEKLAASLWLWKRDIASHFSNKRKK [S29R], the abundance fitness was -0.088 ± 0.073.

Consider FLTKYFNKQPYPTRREIEKLAASLWFWKSDIASHFSNKRKK [L26F], for which the abundance fitness came to 0.069 ± 0.088.

For the variant FLTKYFNKQPYPTRREIEKLAASLWDWKSDIASHFSNKRKK [L26D], the abundance fitness is -0.004 ± 0.075.

On to FLTKYFNKQPYPTRREIEKLAASLWQWKSDIASHFSNKRKK [L26Q], for which the abundance fitness turned out to be 0.122 ± 0.085.

On to FLTKYFNKQPYPTRREIEKLAASLWMWKSDIASHFSNKRKK [L26M], for which the abundance fitness was 0.115 ± 0.084.

Regarding FLTKYFNKQPYPTRREIEKLAASLWAWKSDIASHFSNKRKK [L26A], the abundance fitness is -0.116 ± 0.068.

Consider FLTKYFNKQPYPTRREIEKLAGSLWLWKSDIASHFSNKRKK [A22G], for which the abundance fitness is -0.058 ± 0.062.

Regarding FLTKYFNKQPYPTRREIEKLRASLWLWKSDIASHFSNKRKK [A21R], the abundance fitness was -0.021 ± 0.063.

Regarding FLTKYFNNQPYPTRREIEKLAASLWLWKSDIASHFSNKRKK [K8N], the abundance fitness was -0.362 ± 0.066.

For FLTKYFNSQPYPTRREIEKLAASLWLWKSDIASHFSNKRKK [K8S], the abundance fitness is -0.995 ± 0.074.

As for FLTKYFNGQPYPTRREIEKLAASLWLWKSDIASHFSNKRKK [K8G], the abundance fitness is -0.217 ± 0.077.

For FLTKYFNKQPYPTRREIEKLAASLWLWKSDIASHFSRKRKK [N37R], the abundance fitness is -0.081 ± 0.08.

For FLTKYFNKQPYPTRREIEKLAASLWLWKSDIASHFSCKRKK [N37C], the abundance fitness is -0.002 ± 0.091.

In the case of FLTKYFNKQPYPTRREIEKLAASLWLWKSDIASHFSFKRKK [N37F], the abundance fitness was -0.044 ± 0.066.

With FLTKYFNKQPYPTRREIEKLAASLWLPKSDIASHFSNKRKK [W27P], the abundance fitness was -0.398 ± 0.08.

Consider FLTKYFNKQPYPTRREIEKLAASLWLKKSDIASHFSNKRKK [W27K], for which the abundance fitness was found to be 0.067 ± 0.06.

In the case of FLTKYFNKQPYPTRREIEKLAASLWLWKSVIASHFSNKRKK [D30V], the abundance fitness is -0.317 ± 0.11.

Turning to FLTKYFNKQPYPTRREIEKLAASLWLWKSYIASHFSNKRKK [D30Y], the abundance fitness is -0.082 ± 0.13.

On to FLTKYFNKQPYPTRREIEKLAASLWLWKSQIASHFSNKRKK [D30Q], for which the abundance fitness stood at 0 ± 0.12.

As to FLTKYFNKQPYPTRREIEKLAASLWLWKSFIASHFSNKRKK [D30F], the abundance fitness is -0.257 ± 0.11.
